Results: publication PMC3333781, “Systematic mapping of two component response regulators to gene targets in a model sulfate reducing bacterium”

Legend:
Assay in all cases: EMSA; 10 mM Tris-HCl pH 7.5, 1 mM DTT, 50 mM KCl, 5 mM MgCl2, 25% glycerol, 1 ug/ml poly dI-dC, 50-100 fmol biotinylated DNA, 25-30 C, 20 min
Details in all cases: protein: recombinant; tags: C-terminal V5-6xHis; chain copies: 2; label: 5'-biotin top strand
[1] = molecular target: T1, DVU1063 response regulator (Desulfovibrio vulgaris Hildenborough, UniProt Q72D66 1-479)
T1 sequence: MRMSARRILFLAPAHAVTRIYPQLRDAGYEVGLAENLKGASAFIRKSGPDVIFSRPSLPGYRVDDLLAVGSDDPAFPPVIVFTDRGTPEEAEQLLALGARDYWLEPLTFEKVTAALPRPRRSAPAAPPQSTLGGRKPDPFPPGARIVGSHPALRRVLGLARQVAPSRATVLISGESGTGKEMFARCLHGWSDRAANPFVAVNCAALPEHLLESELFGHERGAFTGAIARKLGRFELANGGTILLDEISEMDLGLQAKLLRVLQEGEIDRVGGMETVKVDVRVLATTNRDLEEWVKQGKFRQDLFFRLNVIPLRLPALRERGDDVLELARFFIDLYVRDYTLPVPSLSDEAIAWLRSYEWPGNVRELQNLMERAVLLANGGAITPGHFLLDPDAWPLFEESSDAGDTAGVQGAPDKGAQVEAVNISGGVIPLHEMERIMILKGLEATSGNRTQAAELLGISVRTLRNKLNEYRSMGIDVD

[2] = molecular target: T2, DVU1419 response regulator (Desulfovibrio vulgaris Hildenborough, UniProt Q72C65 1-459)
T2 sequence: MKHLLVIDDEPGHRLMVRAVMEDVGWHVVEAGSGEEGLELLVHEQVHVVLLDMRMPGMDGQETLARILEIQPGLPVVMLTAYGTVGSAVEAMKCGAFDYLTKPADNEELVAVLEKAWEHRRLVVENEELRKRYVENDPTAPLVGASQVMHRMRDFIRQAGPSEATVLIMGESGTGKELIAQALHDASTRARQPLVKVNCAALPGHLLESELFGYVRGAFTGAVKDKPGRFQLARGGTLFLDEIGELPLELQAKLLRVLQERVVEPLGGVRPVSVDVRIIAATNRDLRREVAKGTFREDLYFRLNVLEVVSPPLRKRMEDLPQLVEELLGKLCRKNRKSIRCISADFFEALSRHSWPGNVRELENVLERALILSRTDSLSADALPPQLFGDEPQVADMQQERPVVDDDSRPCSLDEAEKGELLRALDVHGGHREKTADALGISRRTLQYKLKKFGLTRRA

[3] = molecular target: T3, DVU2114 response regulator (Desulfovibrio vulgaris Hildenborough, UniProt Q72A83 1-462)
T3 sequence: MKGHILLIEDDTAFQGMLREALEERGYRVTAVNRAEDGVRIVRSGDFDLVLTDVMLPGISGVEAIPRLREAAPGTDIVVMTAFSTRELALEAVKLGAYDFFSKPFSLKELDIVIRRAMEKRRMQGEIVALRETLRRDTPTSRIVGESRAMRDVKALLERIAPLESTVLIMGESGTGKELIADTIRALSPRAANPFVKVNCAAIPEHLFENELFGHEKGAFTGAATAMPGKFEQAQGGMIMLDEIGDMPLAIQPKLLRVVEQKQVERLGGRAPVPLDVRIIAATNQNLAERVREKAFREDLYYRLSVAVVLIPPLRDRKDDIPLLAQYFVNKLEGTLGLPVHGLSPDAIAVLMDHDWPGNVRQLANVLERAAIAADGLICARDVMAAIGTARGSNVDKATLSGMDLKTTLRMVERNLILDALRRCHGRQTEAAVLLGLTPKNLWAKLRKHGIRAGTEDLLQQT

B1: DVU1032 motif mut (dsDNA)
DNA 1: GGCATGGTCGGGCACGTGTTTTCGATTGTATCCTG
DNA 2: CAGGATACAATCGAAAACACGTGCCCGACCATGCC
binding result [1]: no binding

B2: DVU1418 motif mut (dsDNA)
DNA 1: GCCGTGGCGTACTATGCCATCGTTTGCTCGTTCATGGTGC
DNA 2: GCACCATGAACGAGCAAACGATGGCATAGTACGCCACGGC
binding result [2]: no binding

B3: DVU2116 motif mut (dsDNA)
DNA 1: ACCGGGCCACTACACAAATCAATGCTGCCCATCGC
DNA 2: GCGATGGGCAGCATTGATTTGTGTAGTGGCCCGGT
binding result [3]: no binding
